# Patent US20260217846A1 (published 2026)
# Biological target: recombinant human 4-1BB (human, UniProt Q07011 24-186)
# Test: ELISA
# Chain of recombinant human 4-1BB (Q07011 24-186): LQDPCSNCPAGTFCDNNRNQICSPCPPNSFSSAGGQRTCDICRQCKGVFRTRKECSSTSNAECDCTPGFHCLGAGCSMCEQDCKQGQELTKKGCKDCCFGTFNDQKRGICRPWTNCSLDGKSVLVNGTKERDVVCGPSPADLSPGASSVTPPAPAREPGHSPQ
row,EC50 [ng/mL],Binder
1,1.32,"Clone 49A 4-1BB antibody (IgG1) (antibody, V domains shown) VH: VKLQQSGPELVKPGASVKISCKASGYTFTDYYMNWVKESHGKSLEWIGDINPNNGGSTYYNQKFKGKATLTVEKSSSTAFMELRSLTSEDSAVYYCARSLYGSTYYFDYWGQGTPLTVSS VL: DIVLTQSPASLAVSLGQRATISCKASQSVDYDGDSYMNWYQQKPGQPPKLLIYAASNLESGIPARFSGSGSGTDFTLNIHPVEEEDAGTYYCQQSNDDPWTFGGGTKLEIK"
2,16,"Clone 54 4-1BB antibody (IgG2a) (antibody, V domains shown) VH: EFQLQQSGPELVKPGASVKISCKASGYSFTDYNMNWVKQSNGKSLEWIGVINPNYGTTSYNQKFKGKATFTVDQSSSTAYMQLNSLTSEDSAVYYCARSPVEDYFDYWGQGTTLTVSS VL: ENVLTQSPAIMSASPGEKVTMTCRARSSVSSSYLHWYQQKSGASPKLWIYSTSNLASGVPARFSGSGSGTSYSLTISSVEAEDAATYYCQQYSGYPLITFGAGTKLELKR"
3,4.71,"Clone 138 4-1BB antibody (IgG2b) (antibody, V domains shown) VH: VQLQESGGGLVKPGGSLKLSCAASGFTFSDYGMHWVRQAPEKGLEWVAYISSGSNSIYYADTVTGRFTISRDNAKNTLFLQMTSLRSEDTAMYYCASNNGYFYFDYWGQGTTLTVSS VL: IVITQSPAILSASPGEKVTMTCRASSSVSYMHWYQQKPGSSPKPWIYATSNLASGVPARFSGSGSGTSYSLTVSRVEAEDAATYYCQQWSSDPFTFGSGTKLEIK"
